What all share (settings): remark: other sources report otherwise
The target of experiment [1] is T1, Native pentameric human C-reactive protein (Scripps) (human), P02741.
T1 chain: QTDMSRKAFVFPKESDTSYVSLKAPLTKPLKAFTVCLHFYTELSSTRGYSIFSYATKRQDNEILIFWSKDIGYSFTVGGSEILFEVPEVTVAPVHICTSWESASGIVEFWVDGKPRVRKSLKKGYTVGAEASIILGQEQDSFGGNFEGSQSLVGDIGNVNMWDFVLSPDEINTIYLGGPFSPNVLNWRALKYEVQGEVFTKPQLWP
The experiment is described as follows: SEC; HiLoad 16/60 Superdex 200 pg, elution buffer B (50 mM tris, 150 mM NaCl, pH 7.2), 0.5 ml/min; pCRP after storage in 20 mM tris, 280 mM NaCl, 1 mM EDTA with 2, 2.5, 3 or 4 M urea at 4°C, 10 weeks. For orientation: SEC sorts molecules by how far they enter the pores of the column.

For experiment [2], the target named is T2, Commercially sourced native C-reactive protein (Binding Site) (human), P02741.
T2 chain: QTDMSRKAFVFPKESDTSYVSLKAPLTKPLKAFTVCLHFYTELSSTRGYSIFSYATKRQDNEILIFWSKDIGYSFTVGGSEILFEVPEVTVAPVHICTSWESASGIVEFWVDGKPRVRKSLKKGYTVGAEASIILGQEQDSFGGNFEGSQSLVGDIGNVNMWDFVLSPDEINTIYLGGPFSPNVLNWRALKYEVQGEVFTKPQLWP
Description: SEC; size exclusion FPLC (recalibrated after a change of column), 0.5 ml/min; 500 μg and 100 μg of PCho affinity purified CRP loaded; fractions at the mCRP position tested by ELISA.

The target in experiment [3] is T3, C-reactive protein purified from human serum of patients with raised CRP levels (>100 mg/L) (human (endogenous in patient serum)), P02741.
T3 chain: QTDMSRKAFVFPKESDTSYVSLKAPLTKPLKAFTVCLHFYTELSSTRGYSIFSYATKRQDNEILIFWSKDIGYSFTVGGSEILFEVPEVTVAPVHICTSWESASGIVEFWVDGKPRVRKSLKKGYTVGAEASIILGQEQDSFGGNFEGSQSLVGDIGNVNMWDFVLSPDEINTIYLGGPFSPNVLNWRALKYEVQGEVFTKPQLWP
The experiment is described as follows: SEC; HiLoad 16/60 Superdex 200 pg, elution with buffer A (5 mM CaCl2), 0.5 ml/min; serum CRP first purified by PCho affinity chromatography and eluted with EDTA.

Usually stoichiometry N stands for a count of units in the complex or per binding partner.

B1: Native pentameric human C-reactive protein (Scripps), P02741 19-224 (natural protein)
chain: QTDMSRKAFVFPKESDTSYVSLKAPLTKPLKAFTVCLHFYTELSSTRGYSIFSYATKRQDNEILIFWSKDIGYSFTVGGSEILFEVPEVTVAPVHICTSWESASGIVEFWVDGKPRVRKSLKKGYTVGAEASIILGQEQDSFGGNFEGSQSLVGDIGNVNMWDFVLSPDEINTIYLGGPFSPNVLNWRALKYEVQGEVFTKPQLWP
For the molecule B1, the stoichiometry N in experiment [1] is 5.

B2: Commercially sourced native C-reactive protein (Binding Site), P02741 19-224 (natural protein)
chain: QTDMSRKAFVFPKESDTSYVSLKAPLTKPLKAFTVCLHFYTELSSTRGYSIFSYATKRQDNEILIFWSKDIGYSFTVGGSEILFEVPEVTVAPVHICTSWESASGIVEFWVDGKPRVRKSLKKGYTVGAEASIILGQEQDSFGGNFEGSQSLVGDIGNVNMWDFVLSPDEINTIYLGGPFSPNVLNWRALKYEVQGEVFTKPQLWP
Turning to B2, in experiment [2], the stoichiometry N is 5.

B3: C-reactive protein purified from human serum of patients with raised CRP levels (>100 mg/L), P02741 19-224 (natural protein)
chain: QTDMSRKAFVFPKESDTSYVSLKAPLTKPLKAFTVCLHFYTELSSTRGYSIFSYATKRQDNEILIFWSKDIGYSFTVGGSEILFEVPEVTVAPVHICTSWESASGIVEFWVDGKPRVRKSLKKGYTVGAEASIILGQEQDSFGGNFEGSQSLVGDIGNVNMWDFVLSPDEINTIYLGGPFSPNVLNWRALKYEVQGEVFTKPQLWP
In experiment [3], B3 yielded a stoichiometry N of 5.

The record behind these values is article PMC7010908.
